Target: human transferrin receptor (human) (UniProt P02786)

For “454A12-RNase conjugate (monoclonal antibody 454A12 against the human transferrin receptor coupled to RNase A)”, the inhibition of protein synthesis of K562 cells (% inhibition (P1, 0.1 µM)) was 99.
